Tests used:
[1] = target: T1, canine IL4 (Sino Biological Inc, Cat #70021-DNAE-5) (canine, UniProt O77762 25-132); assay: cell-based or functional assay
T1 sequence (looked up): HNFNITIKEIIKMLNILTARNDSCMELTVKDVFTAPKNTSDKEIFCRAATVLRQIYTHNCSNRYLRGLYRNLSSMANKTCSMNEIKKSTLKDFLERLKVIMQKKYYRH

[2] = target: T2, canine IL13 with C-terminal poly-His tag (canine, UniProt Q9N0W9 19-131); assay: BLI (Octet), summary sentence of Example 4
T2 construct: Expressed in 293 cells and purified from the supernatant
T2 sequence: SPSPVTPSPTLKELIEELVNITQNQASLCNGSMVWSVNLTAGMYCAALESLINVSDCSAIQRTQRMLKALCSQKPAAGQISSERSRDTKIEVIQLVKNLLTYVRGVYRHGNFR

B1: canine IL4R-IL13R-IgGB (Fc fusion)
chain: SGSVKVLHEPSCFSDYISTSVCQWKMDHPTNCSAELRLSYQLDFMGSENHTCVPENREDSVCVCSMPIDDAVEADVYQLDLWAGQQLLWSGSFQPSKHVKPRTPGNLTVHPNISHTWLLMWTNPYPTENHLHSELTYMVNVSNDNDPEDFKVYNVTYMGPTLRLAASTLKSGASYSARVRAWAQTYNSTWSDWSPSTTWLNYYEPGGGSGTETQPPVTNLSVSVENLCTVIWTWDPPEGASPNCTLRYFSHFDNKQDKKIAPETHRSKEVPLNERICLQVGSQCSTNESDNPSILVEKCTPPPEGDPESAVTELQCVWHNLSYMKCTWLPGRNTSPDTNYTLYYWHSSLGKILQCEDIYREGQHIGCSFALTNLKDSSFEQHSVQIVVKDNAGKIRPSFNIVPLTSHVKPDPPHIKRLFFQNGNLYVQWKNPQNFYSRCLSYQVEVNNSQTETNDIFYVEEAKCQNSEFEGNLEGTICFMVPGVLPDTLNTVRIRVRTNKLCYEDDKLWSNWSQAMSIGENTDPTPKRENGRVPRPPDCPKCPAPEMLGGPSVFIFPPKPKDTLLIARTPEVTCVVVDLDPEDPEVQISWFVDGKQMQTAKTQPREEQFNGTYRVVSVLPIGHQDWLKGKQFTCKVNNKALPSPIERTISKARGQAHQPSVYVLPPSREELSKNTVSLTCLIKDFFPPDIDVEWQSNGQQEPESKYRTTPPQLDEDGSYFLYSKLSVDKSRWQRGDTFICAVMHEALHNHYTQESLSHSPGK
notes: also called canine IL4R-IL13R-Fc; Canine IL4R-IL13R-Fc (SINK)
In the case of B1, the “TF1 cell proliferation assay (CellTiter-Glo luminescence), IC50 by 4 parameter logistic fit” value [1] is reported as 2 nM and the binding result [2] is reported as “binds”.

B2: canine IL13R-IL4R-IgGB (Fc fusion)
chain: TETQPPVTNLSVSVENLCTVIWTWDPPEGASPNCTLRYFSHFDNKQDKKIAPETHRSKEVPLNERICLQVGSQCSTNESDNPSILVEKCTPPPEGDPESAVTELQCVWHNLSYMKCTWLPGRNTSPDTNYTLYYWHSSLGKILQCEDIYREGQHIGCSFALTNLKDSSFEQHSVQIVVKDNAGKIRPSFNIVPLTSHVKPDPPHIKRLFFQNGNLYVQWKNPQNFYSRCLSYQVEVNNSQTETNDIFYVEEAKCQNSEFEGNLEGTICFMVPGVLPDTLNTVRIRVRTNKLCYEDDKLWSNWSQAMSIGENTDPTGGGSGSGSVKVLHEPSCFSDYISTSVCQWKMDHPTNCSAELRLSYQLDFMGSENHTCVPENREDSVCVCSMPIDDAVEADVYQLDLWAGQQLLWSGSFQPSKHVKPRTPGNLTVHPNISHTWLLMWTNPYPTENHLHSELTYMVNVSNDNDPEDFKVYNVTYMGPTLRLAASTLKSGASYSARVRAWAQTYNSTWSDWSPSTTWLNYYEPKRENGRVPRPPDCPKCPAPEMLGGPSVFIFPPKPKDTLLIARTPEVTCVVVDLDPEDPEVQISWFVDGKQMQTAKTQPREEQFNGTYRVVSVLPIGHQDWLKGKQFTCKVNNKALPSPIERTISKARGQAHQPSVYVLPPSREELSKNTVSLTCLIKDFFPPDIDVEWQSNGQQEPESKYRTTPPQLDEDGSYFLYSKLSVDKSRWQRGDTFICAVMHEALHNHYTQESLSHSPGK
notes: also called Canis lupus IL13R-IL4R-Fc; canine IL13R-IL4R-Fc
B2: binds [2].
